How the values were obtained:
hPDGFRb.mmh [1] = molecular target: T1, hPDGFRb.mmh (human, UniProt P09619 33-531); test: Octet BLI cross-competition, 25 C; hPDGFRb.mmh on anti-Penta-His tips pre-saturated with mAb-1 H4H3103S (row 4)
T1 construct: Soluble monomeric construct; also called soluble human PDGFR-beta.mmh
Method: (§1) A cross-competition assay was conducted to assess the ability of select antibodies to compete with one another for binding to human PDGFR-beta. […] Each PDGFR-beta.mmh-coated sensor tip was saturated for 5 min with a first anti-PDGFR-beta antibody (Mab #1; 50 μg/mL). Next, each sensor tip was saturated with a solution of a second anti-PDGFR-beta antibody (Mab #2). The real time response of Mab #2 binding to PDGR-beta.mmh pre-complexed with Mab #1 was then monitored. All assays were performed at 25° C. with a flow rate of 1000 rpm on an Octet RED384 biosensor in Octet HBST buffer according to manufacturer's instructions (ForteBio Corp., Menlo Park, Calif.). Results are illustrated in FIG. 2.

[2] = molecular target: T2, Macaca fascicularis PDGFRb.mmh (Macaca fascicularis); test: SPR, mAb captured, 37 C
T2 construct: Soluble monomeric construct; also called mfPDGFRb.mmh
T2 chain: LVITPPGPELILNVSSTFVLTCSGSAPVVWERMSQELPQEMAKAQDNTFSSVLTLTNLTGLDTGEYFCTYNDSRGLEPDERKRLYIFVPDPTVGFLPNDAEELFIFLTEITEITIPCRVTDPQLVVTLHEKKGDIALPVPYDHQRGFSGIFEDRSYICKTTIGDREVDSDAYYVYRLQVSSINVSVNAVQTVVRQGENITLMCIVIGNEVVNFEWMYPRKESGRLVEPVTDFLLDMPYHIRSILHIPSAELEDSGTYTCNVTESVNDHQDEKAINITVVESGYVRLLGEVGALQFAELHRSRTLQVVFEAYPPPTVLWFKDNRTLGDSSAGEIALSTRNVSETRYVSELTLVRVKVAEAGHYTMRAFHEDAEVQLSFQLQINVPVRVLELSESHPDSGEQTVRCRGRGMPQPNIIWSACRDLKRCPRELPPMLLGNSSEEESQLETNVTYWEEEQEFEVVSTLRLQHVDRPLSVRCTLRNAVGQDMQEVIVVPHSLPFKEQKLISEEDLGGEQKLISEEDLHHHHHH
Method: (§2) Antibodies, expressed as either mouse Fc (prefix H1M; H2M) or human Fc (prefix H4H), were captured on their respective anti-Fc sensor surfaces (Mab capture format). […] Kinetic association (kₐ) and dissociation (kd) rate constants were determined by processing and fitting the data to a 1:1 binding model using Scrubber 2.0 curve fitting software.

human PDGFRb.hFc [3] = molecular target: T3, human PDGFRb.hFc (human); test: SPR, mAb captured, 37 C
T3 construct: Soluble dimeric construct with human Fc; also called hPDGFRb.hFc
Method: as §2

hPDGFRb.mmh [4] = molecular target: T1, hPDGFRb.mmh; test: SPR, mAb captured, 37 C
Method: as §2

hPDGFRb.mmh [5] = molecular target: T1, hPDGFRb.mmh; test: blocking ELISA, biot-hPDGFRb.mmh to coated PDGF-BB
hPDGFRb.mmh [6] = molecular target: T1, hPDGFRb.mmh; test: Octet BLI cross-competition, 25 C; hPDGFRb.mmh on anti-Penta-His tips pre-saturated with mAb-1 H4H3374N (row 3)
Method: as §1

[7] = molecular target: T2, Macaca fascicularis PDGFRb.mmh; test: SPR, mAb captured, 25 C
Method: as §2

human PDGFRb.hFc [8] = molecular target: T3, human PDGFRb.hFc; test: SPR, mAb captured, 25 C
Method: as §2

hPDGFRb.mmh [9] = molecular target: T1, hPDGFRb.mmh; test: SPR, mAb captured, 25 C
Method: as §2

[10] = molecular target: T4, full length human PDGFR-beta on HEK293 cells (human, UniProt P09619 33-1106); test: cell-based or functional assay
hPDGFRb.mmh [11] = molecular target: T1, hPDGFRb.mmh; test: Octet BLI cross-competition, 25 C; hPDGFRb.mmh on anti-Penta-His tips pre-saturated with mAb-1 H4H3107S (row 7)
Method: as §1

hPDGFRb.mmh [12] = molecular target: T1, hPDGFRb.mmh; test: Octet BLI cross-competition, 25 C; hPDGFRb.mmh on anti-Penta-His tips pre-saturated with mAb-1 H4H3310N (row 9)
Method: as §1

[13] = molecular target: T4, full length human PDGFR-beta on HEK293 …; test: cell-based or functional assay; remark: listed apart in the source
hPDGFRb.mmh [14] = molecular target: T1, hPDGFRb.mmh; test: Octet BLI cross-competition, 25 C; hPDGFRb.mmh on anti-Penta-His tips pre-saturated with mAb-1 Control I (row 1)
Method: as §1

hPDGFRb.mmh [15] = molecular target: T1, hPDGFRb.mmh; test: Octet BLI cross-competition, 25 C; hPDGFRb.mmh on anti-Penta-His tips pre-saturated with mAb-1 H4H3094P (row 5)
Method: as §1

B1: H4H3094P (antibody, human IgG4, V domains shown)
VH: EVQLVESGGGLVQPGGSLRLSCAASGFTFSSYWMSWVRQAPGKGLEWVANMNQDGSETHYVDSVKGRLSISRDNAKKSLFLHMNSLRAEDTAVYFCARDLVPPRQDDYYYYFGMDVWGHGTTVTVSS
VL: DIQMTQSPSTLSASVGDRVTITCRASQSISDWLAWYQQKPGKAPKLLIFKASTLESGVPSRFSGSGSGTEFTLTISSLQPDDFATYYCQQYNSYSRTFGQGTKVEIK
notes: also called H4H3394P
hPDGFRb.mmh [1]
  Response of mAb-2 Binding to hPDGFRβ.mmh Pre-Complexed with mAb-1 (nm): 0.02 nm
[2]
  Kd: 6.69 nM
  koff: 0.0017 s⁻¹
  kon: 253000 M⁻¹ s⁻¹
  t1/2: 7 min
Human PDGFRb.hFc [3]
  Kd: 0.877 nM
  koff: 0.000248 s⁻¹
  kon: 283000 M⁻¹ s⁻¹
  t1/2: 47 min
hPDGFRb.mmh [4]
  Kd: 6.58 nM
  koff: 0.00147 s⁻¹
  kon: 223000 M⁻¹ s⁻¹
  t1/2: 8 min
hPDGFRb.mmh [5]
  % Maximum Blocking: 85%
  IC50: 0.12 nM
hPDGFRb.mmh [6]
  Response of mAb-2 Binding to hPDGFRβ.mmh Pre-Complexed with mAb-1 (nm): 0.02 nm
[7]
  Kd: 1.63 nM
  koff: 0.000289 s⁻¹
  kon: 177000 M⁻¹ s⁻¹
  t1/2: 40 min
Human PDGFRb.hFc [8]
  Kd: 0.256 nM
  koff: 6.2e-05 s⁻¹
  kon: 242000 M⁻¹ s⁻¹
  t1/2: 186 min
hPDGFRb.mmh [9]
  Kd: 1.56 nM
  koff: 0.000257 s⁻¹
  kon: 165000 M⁻¹ s⁻¹
  t1/2: 45 min
[10]
  IC50, blocking PDGF-BB (250 pM) activation, SRE-luciferase: 4e-10 M
  IC50, blocking PDGF-DD (400 pM) activation, SRE-luciferase: 3.9e-10 M
hPDGFRb.mmh [11]
  Response of mAb-2 Binding to hPDGFRβ.mmh Pre-Complexed with mAb-1 (nm): 0.23 nm
hPDGFRb.mmh [12]
  Response of mAb-2 Binding to hPDGFRβ.mmh Pre-Complexed with mAb-1 (nm): 0.25 nm
[13]
  Percent Internalization (Relative to Control I): 77%
hPDGFRb.mmh [14]
  Response of mAb-2 Binding to hPDGFRβ.mmh Pre-Complexed with mAb-1 (nm): -0.01 nm

B2: H4H3099S (antibody, human IgG4, V domains shown)
VH: QITLKESGPTLVKPTQTLTLTCTFSGFSLTTTGVGVGWIRQPPGKALEWLALIYWNDLKRYSPSLKNRLTITKDTSRHQVVLTMTNMDPMDTATYYCAHRPLYYGSGSGWFDPWGPGTTVTVSS
VL: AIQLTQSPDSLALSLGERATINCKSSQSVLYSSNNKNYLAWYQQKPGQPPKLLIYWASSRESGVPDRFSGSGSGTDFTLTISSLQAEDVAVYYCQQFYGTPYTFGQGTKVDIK
notes: human IgG4 Fc (H4H prefix)
hPDGFRb.mmh [1]
  Response of mAb-2 Binding to hPDGFRβ.mmh Pre-Complexed with mAb-1 (nm): 0.34 nm
[2]
  Kd: 2.17 nM
  koff: 0.000652 s⁻¹
  kon: 300000 M⁻¹ s⁻¹
  t1/2: 18 min
Human PDGFRb.hFc [3]
  Kd: 0.193 nM
  koff: 0.000105 s⁻¹
  kon: 540000 M⁻¹ s⁻¹
  t1/2: 110 min
hPDGFRb.mmh [4]
  Kd: 2.39 nM
  koff: 0.000639 s⁻¹
  kon: 267000 M⁻¹ s⁻¹
  t1/2: 18 min
hPDGFRb.mmh [5]
  % Maximum Blocking: 91%
  IC50: 0.097 nM
hPDGFRb.mmh [6]
  Response of mAb-2 Binding to hPDGFRβ.mmh Pre-Complexed with mAb-1 (nm): 0.31 nm
[7]
  Kd: 0.987 nM
  koff: 0.000164 s⁻¹
  kon: 166000 M⁻¹ s⁻¹
  t1/2: 71 min
Human PDGFRb.hFc [8]
  Kd: 0.23 nM
  koff: 5.48e-05 s⁻¹
  kon: 238000 M⁻¹ s⁻¹
  t1/2: 211 min
hPDGFRb.mmh [9]
  Kd: 1.16 nM
  koff: 0.000169 s⁻¹
  kon: 145000 M⁻¹ s⁻¹
  t1/2: 68 min
[10]
  IC50, blocking PDGF-BB (250 pM) activation, SRE-luciferase: 2.1e-10 M
  IC50, blocking PDGF-DD (400 pM) activation, SRE-luciferase: 1.9e-10 M
[13]
  Percent Internalization (Relative to Control I): 88%
hPDGFRb.mmh [14]
  Response of mAb-2 Binding to hPDGFRβ.mmh Pre-Complexed with mAb-1 (nm): 0.28 nm
hPDGFRb.mmh [15]
  Response of mAb-2 Binding to hPDGFRβ.mmh Pre-Complexed with mAb-1 (nm): 0.35 nm

B3: H4H3374N (antibody, human IgG4, V domains shown)
VH: QLQLQESGPGLVKPSETLSLTCTVSGGSITSSSYYWGWIRQPPGKGLEWIGSIYYRGSTNYNPSLKSRVTISVDSSKNQFYLKVSSVTAVDTAVYYCARQNGAARPSWFDPWGQGTLVTVSS
VL: EIVLTQSPDTISLSPGERATLSCRASQSISSIYLAWYQQKPGQAPRLLIYGASSRVTGIPDRFSVSGSGTDFTLTISRLEPEDFAVYYCQHYGISPFTFGPGTKVDIR
notes: human IgG4 Fc (H4H prefix)
hPDGFRb.mmh [1]
  Response of mAb-2 Binding to hPDGFRβ.mmh Pre-Complexed with mAb-1 (nm): 0.02 nm
[2]
  Kd: 2.63 nM
  koff: 0.00177 s⁻¹
  kon: 670000 M⁻¹ s⁻¹
  t1/2: 7 min
Human PDGFRb.hFc [3]
  Kd: 0.178 nM
  koff: 0.000291 s⁻¹
  kon: 1.63e+06 M⁻¹ s⁻¹
  t1/2: 40 min
hPDGFRb.mmh [4]
  Kd: 1.84 nM
  koff: 0.00126 s⁻¹
  kon: 685000 M⁻¹ s⁻¹
  t1/2: 9 min
hPDGFRb.mmh [5]
  % Maximum Blocking: 86%
  IC50: 0.12 nM
[7]
  Kd: 1.66 nM
  koff: 0.000472 s⁻¹
  kon: 284000 M⁻¹ s⁻¹
  t1/2: 24 min
Human PDGFRb.hFc [8]
  Kd: 0.148 nM
  koff: 8.93e-05 s⁻¹
  kon: 600000 M⁻¹ s⁻¹
  t1/2: 129 min
hPDGFRb.mmh [9]
  Kd: 1.26 nM
  koff: 0.000358 s⁻¹
  kon: 283000 M⁻¹ s⁻¹
  t1/2: 32 min
[10]
  IC50, blocking PDGF-BB (250 pM) activation, SRE-luciferase: 1.3e-10 M
  IC50, blocking PDGF-DD (400 pM) activation, SRE-luciferase: 1.5e-10 M
hPDGFRb.mmh [11]
  Response of mAb-2 Binding to hPDGFRβ.mmh Pre-Complexed with mAb-1 (nm): 0.24 nm
hPDGFRb.mmh [12]
  Response of mAb-2 Binding to hPDGFRβ.mmh Pre-Complexed with mAb-1 (nm): 0.26 nm
[13]
  Percent Internalization (Relative to Control I): 81%
hPDGFRb.mmh [15]
  Response of mAb-2 Binding to hPDGFRβ.mmh Pre-Complexed with mAb-1 (nm): 0 nm
